Data on 1 molecule can be found in publication PMC5413351, “Structural basis of protein translocation by the Vps4-Vta1 AAA ATPase” (eLife, 2017).

Where no end group is shown, it is not given here.

In this assay the target is Vta1^VSL (S. cerevisiae, UniProt Q06263 1-330). The assay is described as follows: cryo-EM structure. To be noted: both partners purified.

B1: Vta1^VSL (domain or fragment)
chain: SYTKDELTKIMDRASKIEQIQKLAKYAISALNYEDLPTAKDELTKALDLLNSI
modifications: also: homodimer
With B1, the “stoichiometry N” value stood at 2.
